Results on 7 sequences are retold here after a protein production outcome set (Wang et al. 2014).

The data set is described as follows: label from the status in PepcDB records.

Take “MIPFTIEYIFVLIGAFLLSIILTPIIRVISLKVGAVDKPNARRINKVPMPSSGGLAIFLSFVVTTLFFMPMAASRHFIEVSYFHYILPVIIGGLVVTTTGFIDDIFELRPRYKMLGIIIAAIIIWKFTHFRFDSFKIPIGGPLLEFGPILTFFLTVLWIISITNAINLIDGLDGLVSGVSIISLATMAVVSYFFLPKIDFFLTLTIVILIASIVGFFPYNYHPAIIYLGDAGALFIGFMIGVLSLQGLKNSTAVAVITPVIILGVPILDTAVAIVRRKLSGKKISEADKMHLHHRLLSMGFTHRGAVLVVYGIAIIFSLIALLLNVSSRIGGIFLLLALLLAMEIFIEGLNIWGENRTPLFNLLKFIGNSDYRQSVIAKYSDKHQK”: the protein production result is given as “failed”.

On to “MIPIHPVGGSQTPASSTAAAGTGDAVTSVFLQPGRISLPASPPLSLYVHVPWCVRKCPYCDFNSHAEPEAGIPEDRFLAAIRQDLEAALPMVWGRRVHTIFIGGGTPSLLSARGLDTLLSDIRMLLPVDADAEITMEANPGTFEAERFRSYRASGVNRLSIGIQSFNDTHLQALGRIHSAAEARAAIDIARAHFDNINLDLMFALPGQTLAECEADVEAALSFGTSHVSLYHLTLEPNTYFAKHPPALPDDDTAFAMQDWIHARLAAAGYEHYEVSAYARPGKRCKHNLNYWQFGDYLGIGPGAHGKLSFPHRVIRDMRHKHPETYLRQAETAGGATVVQEQREVDAADLPFEFMLNALRLTDGFPVTLFQERTGLPLRGIERELDAAERRGLLVHDHATIRPTELGQRFLNDLQALFLADDEN”, for which the protein production result was “failed”.

As to “MIPLMHDFEGETVLVVGGGSVGARKARTFATEASVVVLSPEFGDRTFADAEKVRAAPTPEDATDWVERTDPALVVAATDDSDLNGAFSTAAAEHGALVNRTDDHGDQSFGNIVVPATVRDDPVTLAIATGGRAPALSKHLRERFEDEFGNAGLMADLVGDLREDLRDRGVPPAKRRDAVRFVVRSREVWKALDSGRSKGEQVARDVIGELPGDQT”, the protein production entry is “not failed”.

Turning to “MIPLVSIIVPMYNVEPFIEECIDSLLRQTLSDIEIILVNDGTPDRSGEIAEDYAKRDARIRVIHQANGGLSSARNTGIKAARGTYIGFVDGDDYVSSAMFQRLTEEAEQNQLDIVGCGFYKQSSDRRTYVPPQLEANRVLTKPEMTEQLKHAHETRFIWYVWRYLYRRELFERANLLFDEDIRFAEDSPFNLSAFREAERVKMLDEGLYIYRENPNSLTEIPYKPAMDEHLQKQYQAKIAFYNHYGLAGACKEDLNVYICRHQLPMLLANACASPNSPKDIKKKIRQILSYDMVRQAVRHTPFQHEKLLRGERLVLALCKWRLTFLIKLFFEQRGTMKGSAKQALEHHHHHH”, the protein production entry is listed as “failed”.

“MIPMEELKVKKITNGTVIDHIDAGKALMVFKVLNVPKETSVMIAINVPSKKKGKKDILKIEGIELKKEDVDKISLISPDVTINIIRNGKVVEKLKPQIPDEIEGTLKCTNPNCITNKEKVRGKFKIESKNPLKIRCYYCEKFLNEVIFE”: the protein production result is recorded as “not failed”.

With “MIPRVRAPELPQNYPWLNTEQPLSIKQLNGRVVILDFWTYCCINCLHVLPDLKYLEQKYKDSLTVIGVHSAKFDNEQETENIRQAILRYDIEHPVLVDKDFRVWQEYAVRAWPTLMVIDPKGYVIGYVSGEGNRDKLDQLITQVIQEHQGAINFQQLSLTLEKQRQPLITPLAFPGKVLATPSGLFVADSGHHRIVVSDFNGEILHLIGNGKSGLTDGNFQEAQFSAPQGMAFDMENQILYLADTENHALRRVDINQQTVETIAGTGEQSRNIQPHGGVGLETALNSPWDLVNIENSLYIAMAGVHQIWQMDLASGVIKTYAGTGVEACLDASLTESAFAQPSGITNNEQELYIADSEISSIRGVGLVEPQEVRTVCGSGGLFGFGDVDGQGEDVRLQHCLGVEYFQNYLWVADTYNHKIKSVSPHTGNCQTVLGDGLAGLQNGQGKNTRFFEPSGLSAIDSYLYISDTNNHVIRRVDLRTLEVTTMQFNGLCAPDVCIPNNFLEHHHHHH”, the protein production entry is given as “failed”.

In the case of “MIPVTSFRGKKVALFGLGGSGLVTARALVAGGAAVVAFDDNPDSVAKAQAEGIATADLHTIDWSSFSSFVLAPGVPLTHPKPHWSVDLAKAAGVEVIGDIELFIRERRVHAPDCPFIAITGTNGKSTTTALIAHILQSSGRDTQLGGNIGTAVLSLDPPKAQRFYVVECSSYQIDLAPTINPTAGILLNLTPDHLDRHGTMQHYADVKERLVAGSGTAIVGVDDSHSTLIADRIERAGVKVERISKRNVVSEGLYAEGSQILRAHGGTSSLLVDLDGIQTLRGSHNAQNAAAAIAACLAVGVSEEEIRAGLKSFPGLKHRMQPVGRRGNVTFVNDSKATNADAAAPALSSFDRIYWIAGGLPKAGGITSLSPLFPRIAKAYLIGEAAAEFAATLGEAVPYEISGTLDKAVQHAAADAEKDATAGNVVMLSPACASFDQYKNFEIRGDSFVAQVAALEGMTMLVHSGKGG”, the protein production entry is given as “failed”.
